Where two headings read alike, the source gives them in different places.
B1: Fab-RC, Fab fragment of the human monoclonal antibody IgG-RC (Fab, V domains shown)
VH: QVQLVQSGAEMKKPGASVKVSCKASGYTFIGYHLHWVRQAPGQGLEWMGWINPNSGETNYAQKFQDWVTMTRDTSINTAYMELRLRSDDTAVYYCARGGMTMVRGVMMDWGQGTLVTVSS
VL: DIQMTQSPSFLSASVGDRVTITCRASQGLDNFLAWYQQKPGKAPKLLIYAASTLQRGVPSRFGGSGSGTEFTLTISSLQPEDFATYYCQQLNSYSLTFGPGTKVEIK
B2: Fab-94, Fab fragment of the human monoclonal antibody IgG-94 (Fab, V domains shown)
VH: EVQLVESGGGVVQPGRSLRLSCGASGFTFNTYAMHWVRQAPGKGVEWVAVVSDGGGNRYYAASVKGRFTISRDNSKNTLFLQLNTLRPEDTAVYYCARSRGNHYYYGMDVWGRGTTVTVSS
VL: DIQMTQSPSSVSASVGDRVTITCRASQGISSWLAWYQQKPGKAPKLLIYAASSLQSGVPSRFSGSGSGTDFTLTISSLQPEDFATYYCQQANNFPLTFGGGTKVEIK

Columns and labels:
Test in all cases: crystal structure
VZV glycoprotein gL [1] = biological target: T1, VZV glycoprotein gL (varicella-zoster virus, UniProt P09308)
T1 sequence (P09308 22-159): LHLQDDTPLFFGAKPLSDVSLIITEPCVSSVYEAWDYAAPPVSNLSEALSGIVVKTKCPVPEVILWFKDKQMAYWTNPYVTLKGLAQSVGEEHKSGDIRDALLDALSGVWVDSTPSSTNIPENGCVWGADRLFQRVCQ

[2] = biological target: T2, VZV glycoprotein gH (ectodomain, as in the gHgL crystal structures) (varicella-zoster virus, UniProt P09260)
T2 sequence (P09260 18-795): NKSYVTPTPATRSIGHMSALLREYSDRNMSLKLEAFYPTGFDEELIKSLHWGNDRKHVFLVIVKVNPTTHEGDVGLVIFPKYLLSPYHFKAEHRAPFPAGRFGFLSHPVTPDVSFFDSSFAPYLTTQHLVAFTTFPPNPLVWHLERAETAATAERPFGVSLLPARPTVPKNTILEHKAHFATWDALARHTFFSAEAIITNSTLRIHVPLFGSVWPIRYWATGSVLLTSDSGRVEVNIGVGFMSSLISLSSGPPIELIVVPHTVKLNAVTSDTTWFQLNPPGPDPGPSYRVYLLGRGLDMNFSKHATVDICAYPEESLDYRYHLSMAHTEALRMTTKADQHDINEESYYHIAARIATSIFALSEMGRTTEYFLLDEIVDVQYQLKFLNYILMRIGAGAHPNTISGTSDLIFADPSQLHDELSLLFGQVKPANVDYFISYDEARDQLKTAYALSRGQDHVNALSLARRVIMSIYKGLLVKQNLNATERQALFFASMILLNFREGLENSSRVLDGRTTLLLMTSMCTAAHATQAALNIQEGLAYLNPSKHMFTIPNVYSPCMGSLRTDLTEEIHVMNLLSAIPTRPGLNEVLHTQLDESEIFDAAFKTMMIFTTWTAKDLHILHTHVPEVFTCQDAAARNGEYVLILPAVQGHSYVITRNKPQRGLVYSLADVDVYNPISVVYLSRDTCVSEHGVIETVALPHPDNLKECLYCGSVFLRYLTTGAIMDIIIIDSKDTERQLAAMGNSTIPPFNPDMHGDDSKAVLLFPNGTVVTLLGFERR

[3] = biological target: T2, VZV glycoprotein gH (ectodomain, as in …); remark: listed apart in the source
VZV glycoprotein gL [4] = biological target: T1, VZV glycoprotein gL; remark: listed apart in the source

Row | Binder | binding result (VZV glycoprotein gL [1]) | binding result [2] | binding result [3] | binding result (VZV glycoprotein gL [4])
1 | B1 | binds | binds |  | 
2 | B2 |  |  | binds | binds

Reference: publication PMC4434712 (Proceedings of the National Academy of Sciences of the …, 2015)
